Experimental data taken from patent US20160348147A1, “SYSTEMS AND DEVICES FOR PROTEASE DETECTION BASED ON ENGINEERED POLYMERS AND BIOPOLYMERS AND METHODS OF USE” (DUKE UNIVERSITY, priority 2014, published 2016).

Legend:
[1] = molecular target: T1, Human MMP-1 catalytic domain (Homo sapiens, UniProt P03956); assay: Time-dependent aggregation (OD350) of ELP-substrate fusion with MMP-1 in proteolysis buffer; assay type: biochemical; settings: 50 nM MMP-1 inhibitor added prior to 50 ng/mL (2.5 nM) MMP-1; ELP-substrate fusion 100 μM, 40° C., protease buffer; even after 900 minutes
T1 construct: Human MMP-1 catalytic domain (recombinant, produced in E. coli, 19.9 kDa, >95% purity); purchased Enzo Life Sciences (Farmingdale, N.Y.); host or cells: E. coli
T1 sequence (P03956 100-269 limits assumed): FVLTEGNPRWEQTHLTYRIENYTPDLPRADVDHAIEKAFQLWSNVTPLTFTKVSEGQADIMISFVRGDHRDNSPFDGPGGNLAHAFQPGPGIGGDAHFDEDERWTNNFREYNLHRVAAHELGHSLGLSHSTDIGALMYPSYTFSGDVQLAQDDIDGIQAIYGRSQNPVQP

[2] = system: endogenous MMP-1 in human serum; assay: Time-dependent aggregation (OD350) of ELP-substrate fusion in diluted human serum (40%); assay type: biochemical; settings: diluted serum, without any added MMP-1, after 400 minutes, 37° C.
Protocol: We performed the proteolysis reactions either in 100% protease buffer or in a mixture of human serum and buffer (40% (v/v) serum, 50% (v/v) buffer, 10% (v/v) ELP-substrate solution in water). The proteolysis buffer (100 mM HEPES, CaCl2 20 mM, MgCl2 1.0 mM, ZnCl2 100 μM, NaCl 0.5 M for diluted serum and 0.1 M for buffer solutions) was made experimentally in our lab based on previously published assays (Patterson, J. & Hubbell, J. A. Biomaterials 2010, 31, 7836-7845; Turk, B. E. et al., Nature Biotechnology 2001, 19, 661-667; Lowe, S. B. et al., Acs Nano 2012, 6, 851-857). We investigated proteolysis in two ways. In the first approach, we incubated solutions of the ELP-substrate fusion with MMP-1 (100 ng/mL) for 12 h at 40° C. temperature and measured the optical density at 350 nm (OD350) before and after the incubation. In the second approach, we incubated the ELP-substrate fusion with varying concentrations of MMP-1 (0.02 ng/mL to 200 ng/mL) in buffer or in diluted human serum, at 40° C. or 37° C. respectively, a temperature that is above the CMT of the ELP, and monitored the changes OD350 as a function of time (kinetic study). For the kinetic studies, we added the enzyme to the solution after the optical density of the solution reached a steady-state value and repeated the experiments at least three times. […]

[3] = Thermal behavior by optical turbidimetry and dynamic light scattering; assay type: physicochemical; settings: concentration of 100 μM
Protocol: We confirmed the purity and molecular weight of the purified peptides by electrophoresis (10-20% gradient […] SDS-PAGE, Thermo Scientific, CA) and by matrix-assisted laser desorption/ionization mass spectrometry. Mass spectrometry samples were prepared by mixing the enzymatic reaction product with sinapinic acid in 1:10 ratio. 1 μL of the sample/matrix mixture was then loaded on the grid and the measurements were performed on a Voyager-DE-Pro instrument (Applied Biosystems, Germany). To determine the concentration of the ELP-substrate fusion solutions we used a calculated extinction coefficient (Gill, S. C. & Vonhippel, P. H. Analytical Biochemistry 1989, 182, 319-326) or lyophilized the polypeptide solution. We studied the thermal behavior of the ELP-substrate fusion constructs in both proteolysis buffer (see below) and diluted human serum in the presence and absence of MMP-1 using optical turbidimetry on a temperature-programmed UV-vis spectrometer (Cary 300, Agilent Technologies). To characterize the size of the micelles and aggregates, we used single angle dynamic light scattering (DLS; DynaPro, Protein Solution).
FIG. 2 presents optical densities at 350 nm (OD350) and hydrodynamic diameters of ELP-substrate fusion as a function of temperature prior to, and after, enzymatic reaction. […] These changes are consistent with the self-assembly of ELP-substrate fusions (unimers) into micelles as the temperature is raised above the CMT (Ghoorchian, A. et al., The Journal of Physical Chemistry. B 2013, 117, 8865-8874). We note that there is a slight local maximum in both the optical density and hydrodynamic diameter at temperatures slightly above the CMT, which has been observed previously (Hassouneh, W., Duke University, PhD thesis, 2013); the origin of this small peak is, as yet, unclear.

active PSA = active PSA (Homo sapiens, UniProt P07288); assay: Optical density of PSA peptide before and after incubation with active PSA; assay type: biochemical; settings: 100 μM, 20 ng/mL active PSA, protease buffer, 37° C., 2 hours
active PSA, sequence (P07288 25-261): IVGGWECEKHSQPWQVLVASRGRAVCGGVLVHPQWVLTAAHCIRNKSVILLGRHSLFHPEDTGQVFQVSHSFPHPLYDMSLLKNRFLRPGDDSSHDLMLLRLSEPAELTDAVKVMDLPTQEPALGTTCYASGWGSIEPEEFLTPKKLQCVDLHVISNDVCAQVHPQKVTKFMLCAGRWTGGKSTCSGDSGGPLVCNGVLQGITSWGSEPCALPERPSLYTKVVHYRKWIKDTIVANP
Protocol: We designed a number of genes and replaced the MMP-1 sensitive peptide described above with a PSA-sensitive peptide sequence. One such example is: M(GVGVP)60[…] (SEQ ID NO:6; referred to herein as PSA peptide). Optical density measurements of 100 μM solution of PSA peptide were obtained prior to and after incubation with 20 ng/mL active PSA in protease buffer at 37° C. for 2 hours.

MMP-1 = molecular target: T2, MMP-1 (Homo sapiens, UniProt P03956); assay: Transition temperature of UCST biopolymer before and after incubation with MMP-1; assay type: biochemical; settings: 25 μM, 25 ng/mL MMP-1, 37° C.
T2 sequence (P03956 100-469): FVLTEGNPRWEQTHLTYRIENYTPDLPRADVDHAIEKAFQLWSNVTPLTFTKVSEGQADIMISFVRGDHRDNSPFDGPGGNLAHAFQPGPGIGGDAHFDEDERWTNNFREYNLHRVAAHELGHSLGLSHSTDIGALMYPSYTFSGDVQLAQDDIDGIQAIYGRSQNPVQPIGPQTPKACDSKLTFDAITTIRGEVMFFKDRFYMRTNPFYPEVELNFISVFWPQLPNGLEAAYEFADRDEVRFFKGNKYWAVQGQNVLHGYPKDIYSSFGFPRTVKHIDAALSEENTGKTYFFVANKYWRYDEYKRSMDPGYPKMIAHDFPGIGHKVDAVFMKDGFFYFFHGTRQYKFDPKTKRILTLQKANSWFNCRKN
Text: To exemplify the use of UCST peptides, we changed our system by incorporating a number of UCST biopolymers with the MMP-1 substrate, for example: M(YPSDGRGQ)40YGDGQ VPMSMRGGDEGQQDDEEGY (SEQ ID NO:7; referred to herein as the A4 construct). Cleavage of the protease-sensitive peptide between S and M in this sequence at a constant temperature would increase the transition temperature, which can cause the solution to transition from clear to cloudy. The time that takes for the transition to happen depends on the enzyme concentration similar to in the manner in which the LCST, micellar-based assays described above function.
Accordingly, aggregation time can be used to estimate the enzyme concentration in an unknown solution.

In the case of `COc1ccc(S(=O)(=O)N(CC(=O)NO)CC(C)C)cc1` [NNGH, N-isobutyl-N-(4-methoxyphenylsulfonyl)glycyl hydroxamic acid, reference compound], the “change in optical density upon addition of the inhibitor” value [1] is reported as “no significant change in optical density” and the “aggregation in diluted serum with added MMP-1 inhibitor” value [2] is reported as “no aggregation”.
In the case of (GVGVP)60 [reference compound], the “soluble unimer-aggregate Tt” value [3] is reported as “≈ 37 °C”.
In the case of “M(GVGVP)60GDGQSSIYSQTEEQQDDEEG (MGVGVPGDGQSSIYSQTEEQQDDEEG) [PSA peptide]”, the “optical density after incubation with active PSA” value (active PSA) is reported as “increase in optical density of the solution above the transition temperature”.
In the case of “M(YPSDGRGQ)40YGDGQ VPMSMRGGDEGQQDDEEGY (MYPSDGRGQYGDGQVPMSMRGGDEGQQDDEEGY) [A4 construct, MMP-sensitive-UCST biopolymer]”, the “transition temperature prior to and after incubation with MMP-1” value (MMP-1) is reported as “change in transition temperature”.
